Results published in article PMC4136481.

Biological target: T1, basic region-leucine zipper (B Zip) domain of the transcription factor CCAAT/enhancer binding protein α (C/EBPα) (rat), P05554
T1 chain: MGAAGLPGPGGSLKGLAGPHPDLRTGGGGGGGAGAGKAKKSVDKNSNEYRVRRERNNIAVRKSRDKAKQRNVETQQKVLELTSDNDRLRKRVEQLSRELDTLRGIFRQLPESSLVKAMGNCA
Assay: FRET or BRET
Conditions: remark: other sources report otherwise

- donor fluorescence lifetime τm in the presence of the acceptor, mean: 2.78 ns
B1: basic region-leucine zipper (B Zip) domain of the transcription factor CCAAT/enhancer binding protein α (C/EBPα), P05554 237-358 (domain or fragment)
chain: MGAAGLPGPGGSLKGLAGPHPDLRTGGGGGGGAGAGKAKKSVDKNSNEYRVRRERNNIAVRKSRDKAKQRNVETQQKVLELTSDNDRLRKRVEQLSRELDTLRGIFRQLPESSLVKAMGNCA
